Laboratory results as given in patent publication US20070154994A1 (NATIONAL RESEARCH COUNCIL OF CANADA, published 2007).
Where no end group is shown, it is not given here.

B1: MP-TβRIIIED-K5 fusion protein (receptor)
chain: GPEQKLISEEDLRQLRNPSGFQGQLDGNATFNMELYNTDLFLVPSPGVFSVAENEHVYVEVSVTKADQDLGFAIQTCFLSPYSNPDRMSDYTIIENICPKDDSVKFYSSKRVHFPIPHAEVDKKRFSFLFKSVFNTSLLFLHCELTLCSRKKGSLKLPRCVTPDDACTSLDATMIWTMMQNKKTFTKPLAVVLQVDYKENVPSTKDSSPIPPPPPQIFHGGRGGGGSGGGKVSALKEKVSALKEKVSALKEKVSALKEKVSALKEGGHHHHHH
notes: Secreted from HEK 293SF cells; also called Cterm-TβRIIIED-K5coil; K5 tagged TβRIIIED
B2: TβRIIED-K5 fusion protein (receptor)
chain: TIPPEQKLISEEDLLHVQKSVNNDMIVTDNNGAVKFPQLCKFCDVRFSTCDNQKSCMSNCSITSICEKPQEVCVAVWRKNDENITLETVCHDPKLPYHDFILEDAASPKCIMKEKKKPGETFFMCSCSSDECNDNIIFSEEYNTSNPDGGRGGGGSGGGKVSALKEKVSALKEKVSALKEKVSALKEKVSALKEGGHHHHHH
notes: Secreted from HEK 293SF cells; The monomer was separated from aggregates with a Centriprep 30; also called K5 coiled-tagged TβRIIED; monomeric TβRIIED-K5
B3: TβRIIED-E5 dimerized by K5ox (two TβRIIED-E5 to one K5ox) (receptor)
chain: TIPPEQKLISEEDLLHVQKSVNNDMIVTDNNGAVKFPQLCKFCDVRFSTCDNQKSCMSNCSITSICEKPQEVCVAVWRKNDENITLETVCHDPKLPYHDFILEDAASPKCIMKEKKKPGETFFMCSCSSDECNDNIIFSEEYNTSNPDGGRGGGGSGGGEVSALEKEVSALEKEVSALEKEVSALEKEVSALEKGGHHHHHH
peptide: CGGKVSALKEKVSALKEKVSALKEKVSALKEKVSALKE
modifications: N-terminal Cys oxidized, joining the two chains as a K5 covalent dimer
B4: K5ox (peptide)
peptide: B3 peptide
modifications: also: covalent homodimer via oxidized N-terminal Cys
notes: Synthetic peptide oxidized in ammonium bicarbonate at pH 8.0; also called oxidized CGGK5 coil; K5 covalent dimer
B5: TβRIIED-E5 fusion protein (receptor)
chain: B3 chain
notes: Secreted from HEK 293SF cells; also called TβRII ED-E5 coil; E5 coiled-tagged TβRIIED
B6: TβRIIED-K5/TβRIIED-E5 coiled-coil induced dimer (receptor)
chain 1: B2 chain
chain 2: B3 chain
notes: Non-covalent dimer made by preincubating equimolar TβRIIED-K5 and TβRIIED-E5; also called TβRIIED-E5/TβRIIED-K5 dimer

How the values were obtained:
[1] = molecular target: T1, Recombinant human TGF-β1 (human, UniProt P01137 279-390); experiment: SPR, TGF-β1 coupled, simple model, Kdiss#1
T1 construct: It was amine coupled to the CM5 chip in SPR and used at 10 pM in the luciferase assay; also called transforming growth factor-β1
T1 sequence (P01137 279-390 limits assumed): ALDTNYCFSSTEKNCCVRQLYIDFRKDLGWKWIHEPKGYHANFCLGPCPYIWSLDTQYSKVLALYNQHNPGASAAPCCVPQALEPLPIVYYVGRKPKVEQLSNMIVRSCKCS
Experimental: (§1) In FIG. 6A, different concentrations of MP-TβRIIIED-K5 monomeric fusion protein ranging from 62.5 nM to 500 nM were injected over 75 RUs of coupled TGF-β1 and over a control surface. The points are the resonance units obtained after data preparation as described in Example 2, and the solid lines represent the fit when integrating all the curves simultaneously using a rearrangement model. FIGS. 6B-6C show residuals from the fit of the interaction data using a rearrangement model (FIG. 6B) and a simple one-to-one model (FIG. 6C).
(§2) Surface plasmon resonance studies were performed using a BIACORE™ biosensor (see for example U.S. Pat. No. 6,165,335 and related patents) using a running buffer composed of HBS; 20 mM Hepes (pH 7.4),150 mM NaCl, 3.4 mM EDTA, and 0.05% Tween20 for diluting all the test analytes.

[2] = molecular target: T1, Recombinant human TGF-β1; experiment: SPR, TGF-β1 coupled, simple model, Kdapp
Experimental: as §1, §2

[3] = molecular target: T1, Recombinant human TGF-β1; experiment: SPR, TGF-β1 coupled, simple model, kass#1
Experimental: as §1
(§3) Kinetic experiments were carried out at 25° C. with a flow rate of 100 μL/min. Different concentrations of MP-TβRIIIED-K5 (0 to 500 nM), or MP-TβRIIIED-mixed with equimolar concentrations of […] (0 to 150 nM), were randomly injected in duplicate over a TGF-β1 surface as well as over a control surface (150 μL injections), following which the analyte solution was replaced by buffer for at least 210 seconds. Regeneration of the sensor chip for subsequent injections was accomplished by two pulses of HCl (20 mM, 120 seconds), followed by an EXTRACLEAN procedure performed according to the BIACORE manual.

[4] = molecular target: T1, Recombinant human TGF-β1; experiment: SPR, TGF-β1 coupled, rearrangement model, Kdiss#1
Experimental: as §1, §3

[5] = molecular target: T1, Recombinant human TGF-β1; experiment: SPR, TGF-β1 coupled, rearrangement model, rearrangement step
Experimental: as §1, §2

[6] = molecular target: T1, Recombinant human TGF-β1; experiment: SPR, TGF-β1 coupled, simple model, Kd 1; simple model, Kd 1
Experimental: as §1, §2

[7] = molecular target: T1, Recombinant human TGF-β1; experiment: SPR, TGF-β1 coupled, rearrangement model, Kdapp
Experimental: as §1, §3

[8] = molecular target: T1, Recombinant human TGF-β1; experiment: SPR, TGF-β1 coupled, rearrangement model, Kd 1 (initial binding step)
Experimental: as §1, §2

[9] = molecular target: T1, Recombinant human TGF-β1; experiment: SPR, TGF-β1 coupled, rearrangement model, kass#1
Experimental: as §1, §2

[10] = molecular target: T2, Recombinant human TβRIIED, untagged (human, UniProt P37173 23-166); experiment: SPR (BIACORE), untagged hTβRII ED (about 120 RU left) captured on the coupled anti hTGF-βRII antibody, MP-TβRIIIED-K5 injected
T2 construct: extracellular domain; Gift from Dr. Hinck; also called untagged hTβRII ED; untagged TβRIIED
T2 sequence (P37173 23-166): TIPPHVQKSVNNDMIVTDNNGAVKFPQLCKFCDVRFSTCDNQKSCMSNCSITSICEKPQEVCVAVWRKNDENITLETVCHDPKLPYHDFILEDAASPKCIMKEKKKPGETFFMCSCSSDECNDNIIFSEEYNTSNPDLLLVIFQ
Experimental: This study is also described in Example 2.
(§4) A solution of 0.1 M ethanolamine-HCl (pH 8.5, 35 μL) was then used to block the remaining activated carboxyl groups.
(§5) Three studies were then performed at a flow rate of 5 μL/min: [0183] […] [0184] […] [0185]

[11] = molecular target: T1, Recombinant human TGF-β1; experiment: SPR, TGF-β1 coupled, two-to-one stoichiometry model, kass 2 (second site)
Experimental: (§6) As described in Example 3, TGF-β1 was coupled to the biosensor surface (approximately 250 RUs) by a standard amino coupling procedure. […] After data preparation by the ‘double referencing’ method, the set of sensorgrams was globally fit using a kinetic model depicting the presence of two independent TβRIIED binding sites on the TGF-β1 molecule (two-to-one stoichiometry model).
(§7) Regeneration of the sensor chip for subsequent injections was accomplished by two pulses of HCl (20 mM, 120 seconds), followed by an EXTRACLEAN procedure performed according to the BIACORE manual.

[12] = molecular target: T1, Recombinant human TGF-β1; experiment: SPR, TGF-β1 coupled, two-to-one stoichiometry model, kdiss 1 (first site)
Experimental: as §6, §7

[13] = molecular target: T1, Recombinant human TGF-β1; experiment: SPR, TGF-β1 coupled, two-to-one stoichiometry model, Kd 1 (first site)
Experimental: as §6, §7

[14] = molecular target: T1, Recombinant human TGF-β1; experiment: SPR, TGF-β1 coupled, two-to-one stoichiometry model, kass 1 (first site)
Experimental: as §6, §7

[15] = molecular target: T1, Recombinant human TGF-β1; experiment: SPR, TGF-β1 coupled, two-to-one stoichiometry model, kdiss 2 (second site)
Experimental: as §6, §7

[16] = molecular target: T1, Recombinant human TGF-β1; experiment: SPR, TGF-β1 coupled, two-to-one stoichiometry model, Kd 2 (second site)
Experimental: as §6, §7

[17] = molecular target: B5; experiment: SPR (BIACORE), TβRIIED-E5 captured on the coupled anti hTGF-βRII antibody, TβRIIED-K5 injected at 50 nM
Experimental: as §4, §5

[18] = molecular target: T1, Recombinant human TGF-β1; experiment: cell-based or functional assay
[19] = molecular target: B5; experiment: inferred from SPR of TβRIIED-E5 (300 nM) preincubated with K5ox over coupled TGF-β1
Description: (§8) In another embodiment of the invention, an alternative approach to achieving coiled-coil induced dimerization of TβRIIED is provided. In this embodiment, a dimeric coil is used to act as an adaptor to bridge two proteins.
(§9) Regeneration of the sensor chip was done as described above.

[20] = molecular target: T1, Recombinant human TGF-β1; experiment: SPR (BIACORE), TGF-β1 coupled, 300 nM TβRIIED-E5 alone; the pair is assigned by the fast wash-off that paragraph 133 gives for sensorgrams 1 and 4
Description: as §8, §9

[21] = molecular target: T1, Recombinant human TGF-β1; experiment: SPR, TGF-β1 coupled, avidity model, second step; unit from footnote **
Experimental: as §7

[22] = molecular target: T1, Recombinant human TGF-β1; experiment: SPR, TGF-β1 coupled, rearrangement model, rearrangement step; remark: listed apart in the source
Experimental: (§10) Since TGF-β1 is a covalent dimer, and since TβRIIED was artificially dimerized through coiled-coil interactions, two scenarios of binding were evaluated. […] This corresponds to an overall one to one (dimer-to-dimer) stoichiometry model with a rearrangement step after the initial binding (rearrangement model).

[23] = molecular target: T1, Recombinant human TGF-β1; experiment: SPR, TGF-β1 coupled, simple one-to-one model (poor fit), Kdapp
Experimental: as §7

[24] = molecular target: T1, Recombinant human TGF-β1; experiment: SPR, TGF-β1 coupled, simple one-to-one model (poor fit), Kdiss#1
[25] = molecular target: T1, Recombinant human TGF-β1; experiment: SPR, TGF-β1 coupled, avidity model, Kd 1
Experimental: as §7

[26] = molecular target: T1, Recombinant human TGF-β1; experiment: SPR, TGF-β1 coupled, rearrangement model (best fit), Kdapp
[27] = molecular target: T1, Recombinant human TGF-β1; experiment: SPR, TGF-β1 coupled, simple one-to-one model (poor fit), kass#1
[28] = molecular target: T1, Recombinant human TGF-β1; experiment: SPR, TGF-β1 coupled, avidity model, Kdiss#1
Experimental: as §10

[29] = molecular target: T1, Recombinant human TGF-β1; experiment: SPR, TGF-β1 coupled, avidity model, kass#1
Experimental: as §10

[30] = molecular target: T1, Recombinant human TGF-β1; experiment: SPR, TGF-β1 coupled, simple one-to-one model (poor fit), Kd 1
Experimental: as §7

[31] = molecular target: T1, Recombinant human TGF-β1; experiment: SPR, TGF-β1 coupled, rearrangement model (best fit), kass#1
Experimental: as §10

[32] = molecular target: T1, Recombinant human TGF-β1; experiment: SPR, TGF-β1 coupled, rearrangement model, Kd 1 (initial binding step); remark: listed apart in the source
Experimental: as §10

[33] = molecular target: T1, Recombinant human TGF-β1; experiment: SPR, TGF-β1 coupled, rearrangement model (best fit), Kdiss#1

B1 was tested, and the koff [1] was 0.0025 s⁻¹, the Kd [2] was 48 nM and the kon [3] was 50000 M⁻¹ s⁻¹. The koff [4] was 0.044 s⁻¹, the “kd 2 (no unit)” value [5] was 0.15 no unit and the Kd [6] was 49 nM. The Kd [7] was 86 nM, the Kd [8] was 670 nM and the kon [9] was 64000 M⁻¹ s⁻¹. B1: no binding (tested: 200 nM) [10].

With B2 the kon [11] was 1900 M⁻¹ s⁻¹, the koff [12] was 0.033 s⁻¹ and the Kd [13] was 90 nM. The kon [14] was 365000 M⁻¹ s⁻¹, the koff [15] was 0.0026 s⁻¹ and the Kd [16] was 1250 nM. B2: binds [17].

With B3 the “IC50 for inhibition of signaling (luciferase, MLEC cells)” value [18] was ~30 nM and the “IC50 of TβRIIED-E5 in the presence of 150 nM K5ox (luciferase, MLEC cells)” value [18] was 53 nM.

B4: binds [19].

B5: binds [20].

For B6, the “Kd 2” value [21] was 370 nM, the “Kd 2 (no unit)” value [22] was 0.0166 no unit and the Kd [23] was 0.33 nM. It also gave a koff [24] of 0.00021 s⁻¹, a Kd [25] of 330 nM and a Kd [26] of 1.5 nM. For the same binder, the kon [27] was 640000 M⁻¹ s⁻¹, the koff [28] was 0.071 s⁻¹ and the kon [29] was 213000 M⁻¹ s⁻¹. The Kd [30] was 0.33 nM, the kon [31] was 1.19e+06 M⁻¹ s⁻¹ and the Kd [32] was 92 nM. It also gave a koff [33] of 0.11 s⁻¹.
